Source: the DeepSol protein solubility set

Test: soluble on expression in E. coli; label from the status in PepcDB or PDB records

Sequence | soluble on expression in E. coli
MATQQAKILCCGDVNGNFVELIKKISTTEKKNGPFDSLFCVGEFFGDDDDSNEKVINGNIEFPIPTYILGPANPRYSYLYPEESIEFSSNLTYLGKKGLLNTASGLQIAYLSGVEGSSKDLSCFDKADVEELLIPLGTQVGFSGTDILLTSVWPADIARHSHNQPSKPQPGSVLLSKLAAHLKPRYHFAGLGVHYERQPYRNHRVLLEPARHTTRFIGLAAIGNPEKQKWLYACNVKPMRKMEKEELTAQPPNASEFPYRELLEEIAAKETLSRMNGNGQRPEGSQYRFEMGGAEDGAGNGRKRHNDGGNDGPRNKQPVGPCWFCLSNVDAEKHLVVAIGNKCYAAMPKGPLTEDHVMVLSVGHIQSQVSAPVEVRDEIEKFKSAFTLMANKQGKALVTFERNFRTQHLQVQMVMIDKSSSKALKSSFTTAAACAGFELVTMGPDESLLDMVNEGCPYFVAELPDGSKLFTRSMKGFPLHFGREVLASTPILDCEDKVDWKACVLAKEKEVELVNKLKSDFKPFDFTAEDDSD | not soluble
MAHHHHHHMNEDAMKILNKCSGEKKKGEDLNSCNLLEYYKTKYSSIDIEKAKLILKEQFLIPDFREKQLECLNSIKRFEHVLNIMPTGGGKSLIYQVLPLIIEGISIVISPLISLIQDQIISLRNKKIVAETINSSLNKKENERILDILKSQDLGNLKVLYITPETATSGYFIDILYELYINKKISLISIDEVHCISTWGSDFRKSYRNLNKILDICPYVRTYCCTATATKFVEKDIIRNLNFYIFNKDCDNNINNNNINNNNNIHNNNKYDDHNNNCKVLNIVRTSFNRPNLKYIIIYSDLIKDEKKNSVCDIINEKRNKGKIGIIYCFKRNTCDEISKYLREKGIQALSYHAGLTNNTRKRIQQKWISGKTNILVATIAFGMGIDRKDVSFIIHYNLPKSIENYYQESGRCGRSGHISFCYLFYSKEDVEKLSYIIKTSFAHLDMHDVNIEKKYEKEIYNLECVHNLCINEKCIRSQILSYFGETYPNKNLQTNNTSDHNKQTYKNQTHVEKYNFDTANMYHPSDQNKDNLTDEHFCCSFCYDTKGSRIKIQKVINLYENKKGSNISQFYSKGETHEYNYLYTNNGKHKLYDDDTYYSPSGEEPREKRSTNYYNKYGDKYGDKYDDKYDDKYDEKYDDKYGDRKLQEGIYKLNNKKIKGYIPFQSASSIIPKQIRDKGIIEVMKELEKREEELNEKTKNDQEKHKVNKMNLFKSNSMNVKRKHVFSSFKIPRKI | not soluble
MVGGGLSTDIAGGRTMTCEFRNSRCISDDDDLIRMKEDDTETQKSEFHRKASGFFLRGSGYCRSIFRVSENLEKDWQACNRRAYMSGLVDYQSMARKAYEKLQELGISRHVTPLFAENVTVPIPGVVFLDCVVNDMTLISRIAGLVARAAFHIKNESPQHGLIEVGAPYNLVDNISYPGLIRFCGKVRNNLGNNYNIQCDIFQMCQFGARSLGSVHNTITVTVAAAAPIPNLVPRGILAPPPPPPPLPLPPVRRRAPKVLNLQKFIDAYQPVQSTGYPIGTPAAAAAVEKESAAPVVPENAEKEVAPKIAQKLELCGTPCKIKAEPEDEDIIILKHIAPNTDGGVKRVGSRNKIGKRSQKLKTRRL | not soluble
MGSDKIHHHHHHMTSPSPDQVIRQEILALSAYHVPPAKDMVKLDAMENPYRLPPFLCEEISRIAADTSINRYPDPHAAALKEVLSTTLSVPAGMEIMLGNGSDEIIQIIMLAAAKPEAKLLTIEPGFAMFKMIATFANMQYIGIPLKPDFSLDIDRMLAAIERHQPSVIFLAYPNNPSGNLFDTSALEKIIEISPGLVVIDEAYHPFAGKSFIGRLADYPNLLVMRTLSKLGLAGLRLGLLAGRPEWLSHLEKLRLPYNVNVITQLVATKIMQHYDVLQQQADAIRQTRTRLRTFLENLNGIEVFPSNANFILFRLDGASQIFRLLQQHGILVKNLDNSHPLLKNCLRVTVGTPEENDRFCNTLQDLIAGN | not soluble
TYAFQRRRFWETPGADGPADAAGLGLGATEHALLGAVVERPDSDEVVLTGRLSLADQPWLADHVVNGVVLFPGAGFVELVIRAGDEVGCALIEELVLAAPLVMHPGVGVQVQVVVGAADESGHRAVSVYSRGDQSQGWLLNAEGMLGVAAAETPMDLSV | soluble
LGIDLLSYYIEAGSCMIYYNEKPYIDEFQQYVSDNDISTTDVEQYDEWMSEHDVAFYSVQEMGKVIYNKSNVDKLISPAKNMYDYRFTGSYELPVQFSDIEAEVFIYTGFTEKYY | not soluble
VMGKRYVATPQQSQWEMVVNTPLECQLVHPIPSFGDAVFSSRANKKINLDFELKMRRPMGETRNVSLISMPPPWRPGEHADRITNLKFFKQFDGYVGGQTAWGILSELEKGRYPTFSYQDWQSRDQRIEVALSSVLFQNKYNAFSDCISNLLKYSFEDIAFTILHYERQGDQLTKASKKRLSQIADYIRHNQDIDLVLVATYTDSTDGKSASQSLSERRAESLRDYFQSLGLPEDRIQVQGYGKRRPIADNGSPIGKDKNRRVVISLGRTQVHHHHHH | soluble
MGASQSAEQEARPEVVRIDRNEIPEEYKTVGVSSDVVSRVNATRVAGNDGESDRLRQELAREREEKARLREDMAKLSQLQQRKTAGISAAPVSISGNDLEERKKIFDDTVERVQKQFFAYHRENVCQDNENEIVRCLQENPGRVLKCAPLTEAFEKCVGEFRQQVLKGN | not soluble
MAPSLDSISHSFANGVASAKQAVNGASTNLAVAGSHLPTTQVTQVDIVEKMLAAPTDSTLELDGYSLNLGDVVSAARKGRPVRVKDSDEIRSKIDKSVEFLRSQLSMSVYGVTTGFGGSADTRTEDAISLQKALLEHQLCGVLPSSFDSFRLGRGLENSLPLEVVRGAMTIRVNSLTRGHSAVRLVVLEALTNFLNHGITPIVPLRGTISASGDLSPLSYIAAAISGHPDSKVHVVHEGKEKILYAREAMALFNLEPVVLGPKEGLGLVNGTAVSASMATLALHDAHMLSLLSQSLTAMTVEAMVGHAGSFHPFLHDVTRPHPTQIEVAGNIRKLLEGSRFAVHHEEEVKVKDDEGILRQDRYPLRTSPQWLGPLVSDLIHAHAVLTIEAGQSTTDNPLIDVENKTSHHGGNFQAAAVANTMEKTRLGLAQIGKLNFTQLTEMLNAGMNRGLPSCLAAEDPSLSYHCKGLDIAAAAYTSELGHLANPVTTHVQPAEMANQAVNSLALISARRTTESNDVLSLLLATHLYCVLQAIDLRAIEFEFKKQFGPAIVSLIDQHFGSAMTGSNLRDELVEKVNKTLAKRLEQTNSYDLVPRWHDAFSFAAGTVVEVLSSTSLSLAAVNAWKVAAAESAISLTRQVRETFWSAASTSSPALSYLSPRTQILYAFVREELGVKARRGDVFLGKQEVTIGSNVSKIYEAIKSGRINNVLLKMLA | soluble
MFLDRERELQFLERRYEMGGPEFIVIYGRRRVGKTALLLEFISRHGGIYLLARETSNLENLKRFSDRLSEYFGDDFLKRNPFQNWDAFLEYLNQKATERLVVVIDEFPYLVKGDRSLPSILQEYWDLKLSNGRIFLIICGSSISMMEKLLGYKSPIYGRRTGQINLKPVDFLHAREFLPGYSLEDFIKAYGILGGSPAHLLEFDDSKTIKENLLEYLRSDSLLYQDAFFVLREELEEPRNYFAIMEAVAAGKTSLGEIMNETGLSRATVAKYLSVLIELDFVKREIPITASRKSRRGRYYIKDNYFAFWFRYIHPNIDFIESERRKELLELIIDDLPNYLGGIFENVAIEFLPLISNKLPFKPLKIGRWWHKNEEIDLVAFNEKEEKAILIEVKWKTLNKIEANKILKDLNRKSKILKMKEWEQYHGIIAKRVKDKEKIKGGLIWDLEDIENLKFSPELEHHHHHH | not soluble
MAREAKKDPNELTVEQKLKTLFQLQTMLSKIDEIKTLRGELPLEVQDLEDEIAGLSTRIDKIKAEVDELKSAIAGKRVEIETAKASVEKYKSQQDNVRNNREYDFLTKEIEFQSLEIELCEKRIKEFSADREEKEAEVVKNEQILSERQKDLEQKKGELDEIISETKQEEEKLRDKAKDLETKIEPRLLQSFKRIRKNSRNGLGVVYVQRDACGGCFNKIPPQRQLDIRSRKKVIVCEYCGRIMIDPELAGVQIEHKVEEAPATTTKRAIRRKTAE | not soluble
